# Several values for one entry are separate records, joined by “and”; a condition that tells them apart may be missing. Equal values may be shown once.
# B1: N-terminal membrane anchoring domain of mycobacterial Wag31 (domain or fragment)
# chain: PLTPADVHNVAFSKPPIGKRGYNEDEVDAFLDLVENELTRLIEENSDLRQRINELDQEL
# Molecular target: the molecule itself
# Assay: crystal structure
protein,measurement,value
B1,stoichiometry N,2 and 4

# Source: article doi:10.1101/869594 (bioRxiv, 2019)
